US20110262949A1

T1: wt β2 (E. coli class I ribonucleotide reductase subunit β2), P69924
T1 chain: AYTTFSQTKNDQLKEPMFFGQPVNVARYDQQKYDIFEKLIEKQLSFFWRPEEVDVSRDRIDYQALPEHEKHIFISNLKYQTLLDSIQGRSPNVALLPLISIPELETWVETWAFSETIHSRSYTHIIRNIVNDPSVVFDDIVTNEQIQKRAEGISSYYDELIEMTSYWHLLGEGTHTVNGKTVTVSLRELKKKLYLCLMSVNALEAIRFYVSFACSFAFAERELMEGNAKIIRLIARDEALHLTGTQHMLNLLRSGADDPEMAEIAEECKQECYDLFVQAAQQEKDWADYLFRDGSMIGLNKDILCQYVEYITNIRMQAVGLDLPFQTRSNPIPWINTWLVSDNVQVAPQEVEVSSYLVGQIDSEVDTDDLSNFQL


Experiments:
[1] = molecular target: T1, wt β2 (E. coli class I ribonucleotide …)
[2] = molecular target: wt β2 (E. coli class I ribonucleotide reductase subunit β2) (E. coli) (UniProt P69924); assay: cell-based or functional assay

Row | 1st Phase Ampl (% of total initial Y122• trapped) [2] | 2nd Phase Ampl (% of total initial Y122• trapped) [2] | EPR spin quantitation at 10 s with CDP/ATP: share of remaining spin in the new signal (NH2Y730.) [2] | [NH2Y•] at 20 s in the reaction with β2 and N3ADP/dGTP (EPR) [2] | total initial Y122. consumed at 2 s [2] | EPR spin quantitation at 10 s with CDP/ATP: share of remaining spin in NH2Y731. [2] | Binder | 1st Phase kobs (SF UV-vis, NH2Y• formation / Y122• loss, with CDP/ATP) [1] | rate constant of NH2Y. formation at 325 nm, fast phase [1] | rate constant of NH2Y. formation at 325 nm, slow phase [1] | rate constant of Y122. loss at 410 nm, fast phase [1] | rate constant of Y122. loss at 410 nm, slow phase [1] | 2nd Phase kobs (SF UV-vis, NH2Y• formation / Y122• loss, with CDP/ATP) ([1]; in 1/s)
1 | – | – | – | – | – | – | Y730NH2Y-α2 (E. coli class I ribonucleotide reductase subunit α2 with 3-aminotyrosine at residue 730) (protein) MNQNLLVTKRDGSTERINLDKIHRVLDWAAEGLHNVSISQVELRSHIQFYDGIKTSDIHETIIKAAADLISRDAPDYQYLAARLAIFHLRKKAYGQFEPPALYDHVVKMVEMGKYDNHLLEDYTEEEFKQMDTFIDHDRDMTFSYAAVKQLEGKYLVQNRVTGEIYESAQFLYILVAACLFSNYPRETRLQYVKRFYDAVSTFKISLPTPIMSGVRTPTRQFSSCVLIECGDSLDSINATSSAIVKYVSQRAGIGINAGRIRALGSPIRGGEAFHTGCIPFYKHFQTAVKSCSQGGVRGGAATLFYPMWHLEVESLLVLKNNRGVEGNRVRHMDYGVQINKLMYTRLLKGEDITLFSPSDVPGLYDAFFADQEEFERLYTKYEKDDSIRKQRVKAVELFSLMMQERASTGRIYIQNVDHCNTHSPFDPAIAPVRQSNLCLEIALPTKPLNDVNDENGEIALCTLSAFNLGAINNLDELEELAILAVRALDALLDYQDYPIPAAKRGAMGRRTLGIGVINFAYYLAKHGKRYSDGSANNLTHKTFEAIQYYLLKASNELAKEQGACPWFNETTYAKGILPIDTYKKDLDTIANEPLHYDWEALRESIKTHGLRNSTLSALMPSETSSQISNATNGIEPPRGYVSIKASKDGILRQVVPDYEHLHDAYELLWEMPGNDGYLQLVGIMQKFIDQSISANTNYDPSRFPSGKVPMQQLLKDLLTAYKFGVKTLYYQNTRDGAEDAQDDLVPSIQDDGCESGACKI | 12.8 ± 0.8, 20 ± 1 | 13.6 ± 0.1 s⁻¹ | 2.5 ± 0.1 s⁻¹ | 12.0 ± 0.1 s⁻¹ | 2.4 ± 0.1 s⁻¹ | 2.5 ± 0.1, 19 ± 1
2 | 20% | 19% | 53% | 7.6 µM | 39% | – | Y730NH2Y-α2 (E. coli class I ribonucleotide reductase subunit α2 with 3-aminotyrosine at residue 730) (enzyme, UniProt P00452 1-761, looked up, 3-aminotyrosine (NH2Y) at position 730 in place of Tyr (E. coli RNR numbering)) MNQNLLVTKRDGSTERINLDKIHRVLDWAAEGLHNVSISQVELRSHIQFYDGIKTSDIHETIIKAAADLISRDAPDYQYLAARLAIFHLRKKAYGQFEPPALYDHVVKMVEMGKYDNHLLEDYTEEEFKQMDTFIDHDRDMTFSYAAVKQLEGKYLVQNRVTGEIYESAQFLYILVAACLFSNYPRETRLQYVKRFYDAVSTFKISLPTPIMSGVRTPTRQFSSCVLIECGDSLDSINATSSAIVKYVSQRAGIGINAGRIRALGSPIRGGEAFHTGCIPFYKHFQTAVKSCSQGGVRGGAATLFYPMWHLEVESLLVLKNNRGVEGNRVRHMDYGVQINKLMYTRLLKGEDITLFSPSDVPGLYDAFFADQEEFERLYTKYEKDDSIRKQRVKAVELFSLMMQERASTGRIYIQNVDHCNTHSPFDPAIAPVRQSNLCLEIALPTKPLNDVNDENGEIALCTLSAFNLGAINNLDELEELAILAVRALDALLDYQDYPIPAAKRGAMGRRTLGIGVINFAYYLAKHGKRYSDGSANNLTHKTFEAIQYYLLKASNELAKEQGACPWFNETTYAKGILPIDTYKKDLDTIANEPLHYDWEALRESIKTHGLRNSTLSALMPSETSSQISNATNGIEPPRGYVSIKASKDGILRQVVPDYEHLHDAYELLWEMPGNDGYLQLVGIMQKFIDQSISANTNYDPSRFPSGKVPMQQLLKDLLTAYKFGVKTLYYQNTRDGAEDAQDDLVPSIQDDGCESGACKI | – | – | – | – | – | –
3 | 24% | 11% | – | 7.1 µM | 35% | 45% | Y731NH2Y-α2 (E. coli class I ribonucleotide reductase subunit α2 with 3-aminotyrosine at residue 731) (enzyme, UniProt P00452 1-761, looked up, 3-aminotyrosine (NH2Y) at position 731 in place of Tyr (E. coli RNR numbering)) MNQNLLVTKRDGSTERINLDKIHRVLDWAAEGLHNVSISQVELRSHIQFYDGIKTSDIHETIIKAAADLISRDAPDYQYLAARLAIFHLRKKAYGQFEPPALYDHVVKMVEMGKYDNHLLEDYTEEEFKQMDTFIDHDRDMTFSYAAVKQLEGKYLVQNRVTGEIYESAQFLYILVAACLFSNYPRETRLQYVKRFYDAVSTFKISLPTPIMSGVRTPTRQFSSCVLIECGDSLDSINATSSAIVKYVSQRAGIGINAGRIRALGSPIRGGEAFHTGCIPFYKHFQTAVKSCSQGGVRGGAATLFYPMWHLEVESLLVLKNNRGVEGNRVRHMDYGVQINKLMYTRLLKGEDITLFSPSDVPGLYDAFFADQEEFERLYTKYEKDDSIRKQRVKAVELFSLMMQERASTGRIYIQNVDHCNTHSPFDPAIAPVRQSNLCLEIALPTKPLNDVNDENGEIALCTLSAFNLGAINNLDELEELAILAVRALDALLDYQDYPIPAAKRGAMGRRTLGIGVINFAYYLAKHGKRYSDGSANNLTHKTFEAIQYYLLKASNELAKEQGACPWFNETTYAKGILPIDTYKKDLDTIANEPLHYDWEALRESIKTHGLRNSTLSALMPSETSSQISNATNGIEPPRGYVSIKASKDGILRQVVPDYEHLHDAYELLWEMPGNDGYLQLVGIMQKFIDQSISANTNYDPSRFPSGKVPMQQLLKDLLTAYKFGVKTLYYQNTRDGAEDAQDDLVPSIQDDGCESGACKI | – | – | – | – | – | –
